The target in assay [1] is fibrinogen related-protein 30 (FBN30), insect cell-expressed recombinant (Anopheles gambiae). As to the kind of experiment: non-reducing and reducing SDS-PAGE with western blot; 12% SDS-PAGE without or with beta-ME of culture medium of transfected Hi5 cells; FBN30 detected with anti-FBN30 antibody; covalent (disulfide) dimer. For orientation: In western blotting, separated proteins are transferred to a membrane and probed.

Assay [2] shares this target. In words: SEC; concentrated Hi5 medium on a Superdex 200 10/300 GL column, PBS pH 7.4, 0.4 mL/min, calibrated with protein standards; FBN30 in the fractions quantified by ELISA with anti-FBN30; octamer of four disulfide-linked homodimers. On the technique in general: Size exclusion chromatography separates by hydrodynamic size, large species first.

A word on the stoichiometry N: it is a count of units in the complex or per binding partner. As to “fibrinogen related-protein 30 (FBN30), insect cell-expressed recombinant (natural protein)”, the stoichiometry N is 2 in assay [1] and 8 in assay [2].
